Laboratory results published in IntAct's records for PubMed 9389648.

B1: Mothers against decapentaplegic homolog 2 (Homo sapiens), Q15796 (parent)
chain: MSSILPFTPPVVKRLLGWKKSAGGSGGAGGGEQNGQEEKWCEKAVKSLVKKLKKTGRLDELEKAITTQNCNTKCVTIPSTCSEIWGLSTPNTIDQWDTTGLYSFSEQTRSLDGRLQVSHRKGLPHVIYCRLWRWPDLHSHHELKAIENCEYAFNLKKDEVCVNPYHYQRVETPVLPPVLVPRHTEILTELPPLDDYTHSIPENTNFPAGIEPQSNYIPETPPPGYISEDGETSDQQLNQSMDTGSPAELSPTTLSPVNHSLDLQPVTYSEPAFWCSIAYYELNQRVGETFHASQPSLTVDGFTDPSNSERFCLGLLSNVNRNATVEMTRRHIGRGVRLYYIGGEVFAECLSDSAIFVQSPNCNQRYGWHPATVCKIPPGCNLKIFNNQEFAALLAQSVNQGFEAVYQLTRMCTIRMSFVKGWGAEYRRQTVTSTPCWIELHLNGPLQWLDKVLTQMGSPSVRCSSMS
partner: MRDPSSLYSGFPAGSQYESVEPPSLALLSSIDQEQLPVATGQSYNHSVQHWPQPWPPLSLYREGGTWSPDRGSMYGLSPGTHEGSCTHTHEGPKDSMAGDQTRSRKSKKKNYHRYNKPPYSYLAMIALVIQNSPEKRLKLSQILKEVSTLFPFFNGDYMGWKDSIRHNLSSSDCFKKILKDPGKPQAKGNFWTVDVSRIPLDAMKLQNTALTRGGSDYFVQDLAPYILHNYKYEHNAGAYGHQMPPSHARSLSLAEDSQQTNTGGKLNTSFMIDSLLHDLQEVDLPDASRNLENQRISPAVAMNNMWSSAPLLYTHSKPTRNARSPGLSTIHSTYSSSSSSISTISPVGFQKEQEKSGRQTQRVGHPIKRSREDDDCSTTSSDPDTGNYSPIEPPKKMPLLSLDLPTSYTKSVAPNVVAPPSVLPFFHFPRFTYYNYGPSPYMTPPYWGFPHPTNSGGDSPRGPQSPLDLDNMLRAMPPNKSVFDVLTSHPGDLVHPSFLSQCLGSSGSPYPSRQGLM

Variants of: B1
Settings: with foxh1_xenla foxh1, P70056

effect of a mutation on the interaction | Variant
disrupting interaction | D450E
disrupting interaction | S464A;S465A;S467A
